Results from patent US20240059799A1 (Pfizer, published 2024).

T1: recombinant rat TL1A (rat, UniProt Q8K3Y7 76-252)
T1 construct: biotinylated for SPR capture
T1 sequence: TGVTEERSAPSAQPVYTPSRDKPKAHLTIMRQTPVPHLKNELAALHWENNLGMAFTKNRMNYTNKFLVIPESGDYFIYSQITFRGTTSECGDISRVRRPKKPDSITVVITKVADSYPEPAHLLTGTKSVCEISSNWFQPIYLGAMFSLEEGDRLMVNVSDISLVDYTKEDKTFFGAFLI

T2: recombinant mouse TL1A (mouse, UniProt Q5UBV8 75-252)
T2 construct: biotinylated for SPR capture
T2 chain: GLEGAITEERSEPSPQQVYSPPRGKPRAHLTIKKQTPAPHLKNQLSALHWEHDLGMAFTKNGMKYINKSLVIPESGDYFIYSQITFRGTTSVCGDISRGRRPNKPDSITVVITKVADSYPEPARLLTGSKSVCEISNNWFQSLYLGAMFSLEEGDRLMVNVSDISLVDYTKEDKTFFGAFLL

T3: human IL-23 (human, UniProt P29460 23-328; Q9NPF7 20-189)
T3 construct: also called recombinant human IL-23 (p40/p19)
T3 sequence 1: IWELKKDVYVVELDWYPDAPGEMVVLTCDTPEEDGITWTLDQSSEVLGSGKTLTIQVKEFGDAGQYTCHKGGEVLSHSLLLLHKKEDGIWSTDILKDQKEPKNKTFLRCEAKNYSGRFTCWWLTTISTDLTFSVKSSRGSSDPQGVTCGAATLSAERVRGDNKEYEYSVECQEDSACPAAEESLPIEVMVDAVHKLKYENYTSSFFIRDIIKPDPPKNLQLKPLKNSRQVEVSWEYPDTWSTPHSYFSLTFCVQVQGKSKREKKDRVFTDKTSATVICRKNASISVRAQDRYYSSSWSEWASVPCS
T3 sequence 2: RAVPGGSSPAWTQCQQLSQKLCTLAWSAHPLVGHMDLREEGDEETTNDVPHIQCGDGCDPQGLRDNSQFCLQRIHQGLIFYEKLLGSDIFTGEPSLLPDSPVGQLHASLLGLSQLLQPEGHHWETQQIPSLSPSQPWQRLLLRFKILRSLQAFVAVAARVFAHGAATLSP

T4: cynomolgus monkey IL-23 (cynomolgus monkey, limits assumed)
T4 chain 1: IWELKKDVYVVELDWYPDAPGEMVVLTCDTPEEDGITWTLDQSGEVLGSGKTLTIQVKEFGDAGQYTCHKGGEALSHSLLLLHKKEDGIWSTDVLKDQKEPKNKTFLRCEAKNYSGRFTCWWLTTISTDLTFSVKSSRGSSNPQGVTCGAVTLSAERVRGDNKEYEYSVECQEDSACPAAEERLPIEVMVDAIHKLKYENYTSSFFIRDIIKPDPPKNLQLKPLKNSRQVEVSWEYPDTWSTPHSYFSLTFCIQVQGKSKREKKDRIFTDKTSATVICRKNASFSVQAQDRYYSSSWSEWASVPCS
T4 chain 2: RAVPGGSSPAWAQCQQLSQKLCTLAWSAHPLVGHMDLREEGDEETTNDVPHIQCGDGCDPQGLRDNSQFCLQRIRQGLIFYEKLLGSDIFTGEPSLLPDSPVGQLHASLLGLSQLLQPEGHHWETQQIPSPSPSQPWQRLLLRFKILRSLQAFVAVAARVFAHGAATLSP

T5: recombinant rat TL1A (rat, UniProt Q8K3Y7 76-252)
T5 sequence: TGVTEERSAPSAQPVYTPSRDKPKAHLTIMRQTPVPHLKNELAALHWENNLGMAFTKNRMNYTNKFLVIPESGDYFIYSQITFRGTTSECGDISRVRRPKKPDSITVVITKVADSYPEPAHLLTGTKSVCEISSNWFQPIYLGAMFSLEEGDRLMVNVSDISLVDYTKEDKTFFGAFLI

T6: recombinant cynomolgus monkey TL1A (cynomolgus monkey, UniProt O95150 72-251 (human entry))
T6 construct: also called Cyno TL1A
T6 chain: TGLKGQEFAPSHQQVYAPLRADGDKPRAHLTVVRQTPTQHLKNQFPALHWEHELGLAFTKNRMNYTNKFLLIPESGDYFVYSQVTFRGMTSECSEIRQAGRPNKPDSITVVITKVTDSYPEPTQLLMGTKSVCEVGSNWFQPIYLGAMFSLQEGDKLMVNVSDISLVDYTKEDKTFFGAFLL


Experiments:
recombinant rat TL1A [1] = molecular target: T1, recombinant rat TL1A; experiment: SPR, antibody injected over captured biotinylated TL1A, 37° C.
Method: (§1) For these analyses, kinetic assays were conducted at 37° C. using a collection rate of 10 Hz on a Biacore™ T200 instrument (GE Healthcare). […] The association phase was 90 seconds, and the dissociation phases were 1600 seconds over human, cynomolgus monkey and rabbit TL1A and 180 seconds for mouse and rat TL1A.
(§2) In order to determine binding to TL1A, kinetic assays were conducted at 37° C. using a collection rate of 10 Hz on a Biacore™ T200 instrument (GE Healthcare).

recombinant mouse TL1A = molecular target: T2, recombinant mouse TL1A; experiment: as above
Method: as §1, §2

human IL-23 = molecular target: T3, human IL-23; experiment: SPR, 37 C; antibody captured by anti-human Fc, human IL-23 injected
Method: SPR was utilized to determine if the affinity constants of each arm of the bispecific variants binding human IL-23, containing the p40 subunit, and human TL1A were the same for each bispecific approach. For the analysis of the p40 binding arm, kinetic assays were conducted at 37° C. using a collection rate of 10 Hz on a Biacore™ 8 K+ instrument (GE Healthcare). An anti-human IgG antibody (anti-human Fc, GE Healthcare, 22-0648-88) was amine coupled to all four flow cells of a carboxymethylated dextran coated sensor chip (GE Healthcare,) using the manufacturer's recommended protocol. […] For the analysis of the TL1A binding arm, kinetic assays were conducted at 37° C. using a collection rate of 10 Hz on a Biacore™ T200 instrument (GE Healthcare).
As described above in EXAMPLE 12, SPR was utilized to determine if the affinity constants of each arm of the bispecific variants binding human IL-23, containing the p40 subunit, and human TL1A were the same for each bispecific variant.

cynomolgus monkey IL-23 = molecular target: T4, cynomolgus monkey IL-23; experiment: cell-based or functional assay
recombinant rat TL1A [2] = molecular target: T5, recombinant rat TL1A; experiment: SPR, Biacore T200, 37 C; biotinylated TL1A captured on Biotin CAPture chip, antibody injected
Method: (§3) In order to determine binding to TL1A, kinetic assays were conducted at 37° C. using a collection rate of 10 Hz on a Biacore™ T200 instrument (GE Healthcare). […] For the analysis of the p40 binding arm, kinetic assays were conducted at 37° C. using a collection rate of 10 Hz on a Biacore™ 8 K+ instrument (GE Healthcare).

[3] = molecular target: T6, recombinant cynomolgus monkey TL1A; experiment: as above
Method: as §3

recombinant rat TL1A [4] = molecular target: T5, recombinant rat TL1A; experiment: SPR, Biacore T200, 37 C; biotinylated TL1A captured on Biotin CAPture chip, antibody injected; KD value is approximate
Method: as §3

| binding result (recombinant rat TL1A [1]) | binding result (recombinant mouse TL1A) | koff (human IL-23) | kon (human IL-23) | KIT-225 STAT3 phosphorylation, Cynomolgus Monkey IL-23 IC50 (cynomolgus monkey IL-23) | koff (recombinant rat TL1A [2]) | kon (recombinant rat TL1A [2]) | Kd [3] | koff [3] | kon [3] | Kd (recombinant rat TL1A [4]) | Binder |
| --- | --- | --- | --- | --- | --- | --- | --- | --- | --- | --- | --- |
| binds | binds |  |  |  |  |  |  |  |  |  | p40TL1A-0033 (bispecific antibody, human IgG1, kappa, KiH modified-Fd bispecific: TL1A VL-CL-Fc (hole), TL1A mFd, p40 HC (knob), p40 LC; LS) chain 1: not shown chain 2: QVQLVQSGAEVKKPGASVKVSCKASGYDYTYYGISWVRQAPGQGLEWMGWISTYNTGTHYAPSLQGRVTMTTDTSTSTAYMELRSLRSDDTAVYYCARESYYGSGAFRGGMDVWGQGTTVTVSSASTKGPSVFPLAPSSKSTSGGTAALGCLVKDYFPEPVTVSWNSGALTSGVHTFPAVLQSSGLYSLSSVVTVPSSSLGTQTYICNVNHKPSNTKVDKKVEPKSC heavy: EVQLVQSGAEVKKPGESLKISCKGSGYSFTTYWLGWVRQMPGKGLDWIGIMSPVDSDIRYSPSFQGQVTMSVDKSITTAYLQWNSLKASDTAMYYCARRRPGQGYFDFWGQGTLVTVSSASTKGPSVFPLAPSSKSTSGGTAALGCLVKDYFPEPVTVSWNSGALTSGVHTFPAVLQSSGLYSLSSVVTVPSSSLGTQTYICNVNHKPSNTKVDKKVEPKSCDKTHTCPPCPAPEAAGAPSVFLFPPKPKDTLMISRTPEVTCVVVDVSHEDPEVKFNWYVDGVEVHNAKTKPREEQYNSTYRVVSVLTVLHQDWLNGKEYKCKVSNKALPAPIEKTISKAKGQPREPQVCTLPPSREEMTKNQVSLWCLVKGFYPSDIAVEWESNGQPENNYKTTPPVLDSDGSFFLYSKLTVDKSRWQQGNVFSCSVLHEALHSHYTQKSLSLSPGK light: not shown |
|  |  | 0.00056 s⁻¹ | 2.28e+06 M⁻¹ s⁻¹ | 4.34 nM | 0.0562 s⁻¹ | 52400 M⁻¹ s⁻¹ | 1.09 nM | 0.000127 s⁻¹ | 117000 M⁻¹ s⁻¹ | ~1080 nM | p40TL1A-0033 bispecific antibody (bispecific antibody, human IgG1, kappa, Single cell KiH, modified Fd format; IgG1 effector-function-minimized Fc with LS mutations) heavy: EVQLVQSGAEVKKPGESLKISCKGSGYSFTTYWLGWVRQMPGKGLDWIGIMSPVDSDIRYSPSFQGQVTMSVDKSITTAYLQWNSLKASDTAMYYCARRRPGQGYFDFWGQGTLVTVSSASTKGPSVFPLAPSSKSTSGGTAALGCLVKDYFPEPVTVSWNSGALTSGVHTFPAVLQSSGLYSLSSVVTVPSSSLGTQTYICNVNHKPSNTKVDKKVEPKSCDKTHTCPPCPAPEAAGAPSVFLFPPKPKDTLMISRTPEVTCVVVDVSHEDPEVKFNWYVDGVEVHNAKTKPREEQYNSTYRVVSVLTVLHQDWLNGKEYKCKVSNKALPAPIEKTISKAKGQPREPQVCTLPPSREEMTKNQVSLWCLVKGFYPSDIAVEWESNGQPENNYKTTPPVLDSDGSFFLYSKLTVDKSRWQQGNVFSCSVLHEALHSHYTQKSLSLSPGK light: not shown chain 1: not shown chain 2: QVQLVQSGAEVKKPGASVKVSCKASGYDYTYYGISWVRQAPGQGLEWMGWISTYNTGTHYAPSLQGRVTMTTDTSTSTAYMELRSLRSDDTAVYYCARESYYGSGAFRGGMDVWGQGTTVTVSSASTKGPSVFPLAPSSKSTSGGTAALGCLVKDYFPEPVTVSWNSGALTSGVHTFPAVLQSSGLYSLSSVVTVPSSSLGTQTYICNVNHKPSNTKVDKKVEPKSC |
